Target: Rpc31, endogenous in hmt1Δ yeast cells (hypomethylated) (S. cerevisiae (endogenous in yeast cells)) (UniProt P17890)
Assay: co-IP; α-Rpc31 antibody cross-linked to magnetic beads; yeast lysates at 10 mg/ml, 2 h at 4°C; three washes with PBS, 0.5% Triton X-100, 2.5 mM MgCl2; immunoblot; cells before and after treatment with CPZ for 1 h

UniProt P17890, sequence (P17890 whole entry, stated change not applied): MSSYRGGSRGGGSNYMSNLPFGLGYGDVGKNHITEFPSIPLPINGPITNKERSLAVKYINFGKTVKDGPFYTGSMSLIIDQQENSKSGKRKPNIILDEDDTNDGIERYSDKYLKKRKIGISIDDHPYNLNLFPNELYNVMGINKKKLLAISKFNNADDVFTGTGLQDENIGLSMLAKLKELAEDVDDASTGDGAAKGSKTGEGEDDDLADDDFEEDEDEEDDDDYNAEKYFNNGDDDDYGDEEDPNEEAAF

Substance: Myc-tagged Maf1-7SA (from UniProt P41910 1-395) (natural protein)
- association relative to that in WT cells, after CPZ (% lower than in WT cells): 40
